T1: NDPK-A peptide 5 (human)
T1 peptide: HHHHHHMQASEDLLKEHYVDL

T2: NDPK-A peptide 6 (human)
T2 peptide: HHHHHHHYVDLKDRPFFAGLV

T3: NDPK-A peptide 7 (human)
T3 peptide: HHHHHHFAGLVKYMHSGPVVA

T4: NDPK-A peptide 9 (human)
T4 peptide: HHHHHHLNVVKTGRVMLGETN

T5: NDPK-A peptide 10 (human)
T5 peptide: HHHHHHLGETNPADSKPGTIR

T6: NDPK-A peptide 11 (human)
T6 peptide: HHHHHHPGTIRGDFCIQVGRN

T7: NDPK-A peptide 12 (human)
T7 peptide: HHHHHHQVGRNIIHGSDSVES

T8: NDPK-A peptide 13 (human)
T8 peptide: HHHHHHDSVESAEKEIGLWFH

T9: NDPK-A peptide 14 (human)
T9 peptide: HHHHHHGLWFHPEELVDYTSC

T10: NDPK-A peptide 15 (human)
T10 peptide: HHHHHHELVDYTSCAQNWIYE

T11: NDPK-A peptide 1 (human)
T11 peptide: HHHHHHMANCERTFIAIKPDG

T12: NDPK-A peptide 4 (human)
T12 peptide: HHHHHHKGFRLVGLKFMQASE

T13: NDPK-A peptide 8 (human)
T13 peptide: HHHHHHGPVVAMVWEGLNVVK

T14: NDPK-A peptide 2 (human)
T14 peptide: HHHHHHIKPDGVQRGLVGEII

T15: NDPK-A peptide 3 (human)
T15 peptide: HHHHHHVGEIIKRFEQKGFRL


Tests used:
[1] = target: T16, human NDPK-A (nucleoside diphosphate kinase A), full-length recombinant (human, UniProt P15531 2-152); experiment: MST, NDPK labelled, FABP4 unlabelled
T16 construct: Bought protein (Acro Biosystems NM1-H5147); It was fluorescently labelled (lysine, cysteine or His-tag dye) in MST; also called nm23
T16 sequence (P15531 other isoform, or with tags, fused parts or gaps limits assumed): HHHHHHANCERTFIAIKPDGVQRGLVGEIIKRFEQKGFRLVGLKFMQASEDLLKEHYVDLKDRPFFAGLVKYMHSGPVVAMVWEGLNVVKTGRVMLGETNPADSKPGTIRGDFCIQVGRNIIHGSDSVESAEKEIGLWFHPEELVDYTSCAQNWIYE
Method: (§1) Human NDPK-A (Acro Biosystems, product number NM1-H5147) was prepared in PBS to a stock concentration of 0.4 mg/ml. Human ADK (Novus Biologicals, product number NBP1-44382 or R&D Systems, product number 8024-AK-025) was purchased at a stock concentration of 0.5 mg/ml and buffer exchanged into PBS. Protein concentration used for labeling was 20 uM. Experiments were conducted independently with each of NDPK and ADK labeled with each kit (i.e., experiments were performed with lysine-labeled, cysteine-labeled, and His-labeled versions of each protein to confirm the site of labeling was not influencing detected interaction). […] Concentration of labeled proteins ranged from 12 nM to 20 nM, as determined by MST quantification to obtain a fluorescence intensity of ˜350 from each capillary tube. […]
(§2) To further confirm the formation of the proposed complex, GST-tagged NDPK (GST-NDPK) was generated and immunoprecipitation experiments were performed to investigate the interaction of each proposed component with NDPK. Interaction between all three components of the proposed complex, as well as with the complex and a-Ab (FIG. 4M) were readily identified.

[2] = target: T17, human ADK (adenosine kinase), recombinant (human, UniProt P55263 2-362); experiment: MST, one-to-one recombinant proteins, ADK labelled
T17 construct: Bought protein (Novus Biologicals NBP1-44382 or R&D Systems 8024-AK-025); It was fluorescently labelled in MST
T17 sequence (P55263 2-362 limits assumed): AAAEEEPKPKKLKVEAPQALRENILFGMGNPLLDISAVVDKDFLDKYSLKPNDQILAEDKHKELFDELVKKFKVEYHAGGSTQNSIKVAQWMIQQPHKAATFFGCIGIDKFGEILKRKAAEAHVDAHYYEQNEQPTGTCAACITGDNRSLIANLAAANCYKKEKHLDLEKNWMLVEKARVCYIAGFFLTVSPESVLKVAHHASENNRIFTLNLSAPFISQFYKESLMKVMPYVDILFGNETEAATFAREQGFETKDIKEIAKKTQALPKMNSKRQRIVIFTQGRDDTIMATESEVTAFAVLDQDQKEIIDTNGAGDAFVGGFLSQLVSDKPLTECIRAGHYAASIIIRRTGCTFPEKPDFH
Method: Additionally, one-to-one recombinant protein interaction assays were performed using Microscale Thermophoresis (MST) to independently validate the interactions between each of the proposed complex components. MST is a technology for the interaction analysis of biomolecules. MST is the directed movement of particles in a microscopic temperature gradient. Any change of the hydration shell of biomolecules due to changes in their structure/conformation results in a relative change of the movement along the temperature gradient and is used to determine binding affinities. MST allows measurement of interactions directly in solution without the need of immobilization to a surface (immobilization-free technology).
To perform this technique, proteins were desalted and buffer exchanged into PBS prior to labeling. […] Experiments were conducted independently with each of NDPK and ADK labeled with each kit (i.e., experiments were performed with lysine-labeled, cysteine-labeled, and His-labeled versions of each protein to confirm the site of labeling was not influencing detected interaction). […] Concentration of labeled proteins ranged from 12 nM to 20 nM, as determined by MST quantification to obtain a fluorescence intensity of ˜350 from each capillary tube. […]

[3] = target: T17, human ADK (adenosine kinase), …; experiment: MST, ADK labelled, antibody unlabelled
Method: To perform this technique, proteins were desalted and buffer exchanged into PBS prior to labeling. Desalting was performed using Zeba Spin Desalting Columns (Thermo Scientific, product number 89882, 0.5 ml volume) in a volume of 0.1 ml according to the manufacturer's instructions. Human NDPK-A (Acro Biosystems, product number NM1-H5147) was prepared in PBS to a stock concentration of 0.4 mg/ml. Human ADK (Novus Biologicals, product number NBP1-44382 or R&D Systems, product number 8024-AK-025) was purchased at a stock concentration of 0.5 mg/ml and buffer exchanged into PBS. Protein concentration used for labeling was 20 uM. Experiments were conducted independently with each of NDPK and ADK labeled with each kit (i.e., experiments were performed with lysine-labeled, cysteine-labeled, and His-labeled versions of each protein to confirm the site of labeling was not influencing detected interaction). Labeling kits were: Monolith Protein Labeling Kit RED-NETS (Amine Reactive; Product number MO-L001), Monolith Protein Labeling Kit RED-MALEIMIDE (Cysteine Reactive; Product number: MO-L004), and Monolith His-Tag Labeling Kit RED-tris-NTA (Product number: MO-L008). […] Concentration of labeled proteins ranged from 12 nM to 20 nM, as determined by MST quantification to obtain a fluorescence intensity of ˜350 from each capillary tube. […]

[4] = target: T16, human NDPK-A (nucleoside diphosphate …); experiment: MST, NDPK labelled, antibody unlabelled
Method: as §1, §2

NDPK-A peptide 5 = target: T1, NDPK-A peptide 5; experiment: MST, His-tag-labelled peptide against a-Ab
NDPK-A peptide 6 = target: T2, NDPK-A peptide 6; experiment: MST, His-tag-labelled peptide against a-Ab
NDPK-A peptide 7 = target: T3, NDPK-A peptide 7; experiment: MST, His-tag-labelled peptide against a-Ab
NDPK-A peptide 9 = target: T4, NDPK-A peptide 9; experiment: MST, His-tag-labelled peptide against a-Ab
NDPK-A peptide 10 = target: T5, NDPK-A peptide 10; experiment: MST, His-tag-labelled peptide against a-Ab
NDPK-A peptide 11 = target: T6, NDPK-A peptide 11; experiment: MST, His-tag-labelled peptide against a-Ab
NDPK-A peptide 12 = target: T7, NDPK-A peptide 12; experiment: MST, His-tag-labelled peptide against a-Ab
NDPK-A peptide 13 = target: T8, NDPK-A peptide 13; experiment: MST, His-tag-labelled peptide against a-Ab
NDPK-A peptide 14 = target: T9, NDPK-A peptide 14; experiment: MST, His-tag-labelled peptide against a-Ab
NDPK-A peptide 15 = target: T10, NDPK-A peptide 15; experiment: MST, His-tag-labelled peptide against a-Ab
NDPK-A peptide 1 = target: T11, NDPK-A peptide 1; experiment: MST, His-tag-labelled peptide against a-Ab
NDPK-A peptide 4 = target: T12, NDPK-A peptide 4; experiment: MST, His-tag-labelled peptide against a-Ab
NDPK-A peptide 8 = target: T13, NDPK-A peptide 8; experiment: MST, His-tagged peptide; column head prints 'Binding Affinity (Ka)'
NDPK-A peptide 2 = target: T14, NDPK-A peptide 2; experiment: as above
NDPK-A peptide 3 = target: T15, NDPK-A peptide 3; experiment: as above
[5] = target: T16, human NDPK-A (nucleoside diphosphate …); experiment: MST, His-tagged full-length NDPK-A; column head prints 'Binding Affinity (Ka)'

| Kd [1] [nM] | Kd [2] [nM] | Kd [3] [nM] | Kd [4] [nM] | binding result (NDPK-A peptide 5) | binding result (NDPK-A peptide 6) | binding result (NDPK-A peptide 7) | binding result (NDPK-A peptide 9) | binding result (NDPK-A peptide 10) | binding result (NDPK-A peptide 11) | binding result (NDPK-A peptide 12) | binding result (NDPK-A peptide 13) | binding result (NDPK-A peptide 14) | binding result (NDPK-A peptide 15) | binding result (NDPK-A peptide 1) | binding result (NDPK-A peptide 4) | Kd (NDPK-A peptide 8) [nM] | Kd (NDPK-A peptide 2) [nM] | Kd (NDPK-A peptide 3) [nM] | Kd [5] [nM] | Binder |
| --- | --- | --- | --- | --- | --- | --- | --- | --- | --- | --- | --- | --- | --- | --- | --- | --- | --- | --- | --- | --- |
| ~700 | ~7 |  |  |  |  |  |  |  |  |  |  |  |  |  |  |  |  |  |  | recombinant human FABP4 (fatty acid binding protein 4) (other, Recombinant human FABP4 produced in-house; also called aP2; hormonal FABP4) CDAFVGTWKLVSSENFDDYMKEVGVGFATRKVAGMAKPNMIISVNGDVITIKSESTFKNTEISFILGQEFDEVTADDRKVKSTITLDGGVLVHVQKWDGKSTTIKRKREDDKLVVECVMKGVTSTRVYERA |
|  |  | ~1900 | ~150 | no binding | no binding | no binding | no binding | no binding | no binding | no binding | no binding | no binding | no binding | no binding | no binding | 69.6 | 15900 | 8980 | 116 | CA33 (a-Ab) monoclonal antibody (antibody, Described as a monoclonal antibody; also called active antibody) heavy: QSVEESGGRLVTPGTPLTLTCTVSGFSLSTYYMSWVRQAPGKGLEWIGIIYPSGSTYCASWAKGRFTISKASTTVDLKITSPTTEDTATYFCARPDNDGTSGYLSGFGLWGQGLVTVSSAKTTPPSVYPLAPGSAAQTNSMVTLGCLVKGYFPEPVTVTWNSGSLSSGVHTFPAVLQSDLYTLSSSVTVPSSTWPSETVTCNVAHPASSTKVDKKIVPRDC light: DVVMTQTPASVSEPVGGTVTIKCGASEDISRYLVWYQQKPGQPPKRLIYKASTLASGVPSRFKGSGSGTDFTLTISDLECDDAATYYCQCTYGTYAGSFFYSFGGGTEVVVERTDAAPTVSIFPPSSEQLTSGGASVVCFLNNFYPKDINVKWKIDGSERQNGVLNSWTDQDSKDCTYSMSSTLTLTKDEYERHNSYTCEATHKTSTSPIVKSFNRNEC |

Reference: patent US20230203142A1 (published 2023)
